Reference: publication PMC13200455

B1: Aptamer 3 (ssDNA)
DNA: CACCTAATACGACTCACTATAGCGGATCCGACAGAATGCCATCACCATGTCTAGACCTATTGGCTTTGCGACTGGCTCGAACAAGCTTGC
B2: Aptamer 1 (ssDNA)
DNA: CACCTAATACGACTCACTATAGCGGATCCGATGGGTGGGGGGGTGGGTAGGATCCGTTCGGGGTTTGGCATAGGGTCTGGCTCGAACAAGCTTGC
B3: Aptamer 1 fluorescence/quencher probe (mixed)
DNA 1: B2 DNA
DNA 2: GCAAGCTTGTTCGAGCCAG
DNA 3: CCCTATGCCAAAC
B4: Aptamer 2 (ssDNA)
DNA: CACCTAATACGACTCACTATAGCGGACAGGGCTGGTGTGGCTGGCGTCCGGCTCGAACAAGGCTGGTGTGGCTGGCGTTCTGGCTCGAACAAGCTTGC

Key:
[1] = biological target: T1, USE1 (purified, His-USE1) (Homo sapiens, UniProt Q9H832 1-354); experiment: equilibrium binding curve, one-site fit
[2] = biological target: T1, USE1 (purified, His-USE1); experiment: ELONA titration
[3] = biological target: T1, USE1 (purified, His-USE1); experiment: fluorescence/quencher displacement
[4] = biological target: T1, USE1 (purified, His-USE1); experiment: Ni-NTA and streptavidin pull-down

T1 sequence (Q9H832 whole entry): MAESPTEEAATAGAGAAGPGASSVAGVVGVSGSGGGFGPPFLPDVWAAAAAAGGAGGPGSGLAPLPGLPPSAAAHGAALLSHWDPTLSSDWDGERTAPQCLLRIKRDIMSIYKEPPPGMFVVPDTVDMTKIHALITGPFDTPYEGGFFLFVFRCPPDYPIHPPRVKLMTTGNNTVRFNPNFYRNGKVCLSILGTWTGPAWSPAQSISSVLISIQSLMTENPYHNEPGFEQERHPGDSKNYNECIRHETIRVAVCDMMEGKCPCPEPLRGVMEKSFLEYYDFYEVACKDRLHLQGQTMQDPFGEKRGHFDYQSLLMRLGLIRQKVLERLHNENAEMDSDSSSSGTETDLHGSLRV

| Binder | Kd [1] | also measured |
| --- | --- | --- |
| B1 | 90 ± 2.42 nM | – |
| B2 | 10 ± 2.76 nM | Kd [2]: 7.2 ± 2.91 nM |
| B3 | – | binding result [3]: binds |
| CACCTAACACGATTCACTATAGCTCGGGGTTTGGCA (ssDNA) [Aptamer 1e] | – | binding result [4]: binds |
| B4 | 32 ± 2.54 nM | – |
